B1: 445-E06 peptide-displaying phage (SEQ ID NO: 375) (peptide)
peptide: GSSARCDELINDFHSCLVMAP
B2: 548-C10 peptide-displaying phage (SEQ ID NO: 100) (peptide)
peptide: GSEFECTGWPEFRCYEYAP
B3: 442-E03 peptide-displaying phage (SEQ ID NO: 381) (peptide)
peptide: GSGMGCHQVNISTGDCAEDAP
B4: 550-G07 peptide-displaying phage (SEQ ID NO: 098) (peptide)
peptide: AGAFFCSGPPTFMCSLYGT
B5: 547-H03 peptide-displaying phage (SEQ ID NO: 095) (peptide)
peptide: AGETFCSGWPTFECMQWGT
B6: 551-A05 peptide-displaying phage (SEQ ID NO: 099) (peptide)
peptide: AGWGWCSGPPMFMCTEYGT
B7: 545-E04 peptide-displaying phage (SEQ ID NO: 093) (peptide)
peptide: AGETKCSGPPYFYCWMEGT
B8: 551-H10 peptide-displaying phage (SEQ ID NO: 370) (peptide)
peptide: GSFFPCWRIDRFGYCHANAP
B9: 557-A12 peptide-displaying phage (SEQ ID NO: 372) (peptide)
peptide: GSTMSCWRWGRDAYSCNQMAP
B10: 561-C08 peptide-displaying phage (SEQ ID NO: 010) (peptide)
peptide: GSFNICPYQWCTLWAP
B11: 570-E07 peptide-displaying phage (SEQ ID NO: 012) (peptide)
peptide: AGAWNCEYPTFICEWQGA
B12: 573-F04 peptide-displaying phage (SEQ ID NO: 011) (peptide)
peptide: AGGFACGPPWDICWMFGT
B13: 446-E12 peptide-displaying phage (SEQ ID NO: 374) (peptide)
peptide: GSSHCNQMITPWQNCGMRAP
B14: 552-F02 peptide-displaying phage (SEQ ID NO: 092) (peptide)
peptide: AGMTLCAGPPTFECYEVGT
B15: 443-D04 peptide-displaying phage (SEQ ID NO: 379) (peptide)
peptide: GSMLGCLFEHQNKYDCYVLAP
B16: 550-A08 peptide-displaying phage (SEQ ID NO: 097) (peptide)
peptide: AGDFICQGPPSFVCTNIGT
B17: 465-A03 peptide-displaying phage (SEQ ID NO: 373) (peptide)
peptide: GSSQICAVYLDDTHNCERHAP
B18: 441-H01 peptide-displaying phage (SEQ ID NO: 378) (peptide)
peptide: GSMNMCDTTDEISPTCHPSAP
B19: 452-A03 peptide-displaying phage (SEQ ID NO: 376) (peptide)
peptide: GSRFHCWQGDLMQTYCMPMAP
B20: 552-G09 peptide-displaying phage (SEQ ID NO: 096) (peptide)
peptide: AGEIFCVGPPTFTCMWTGT
B21: 443-H10 peptide-displaying phage (SEQ ID NO: 371) (peptide)
peptide: GSQQICDRKEYRFQACLSDAP
B22: 549-G01 peptide-displaying phage (SEQ ID NO: 368) (peptide)
peptide: GSTKVCHEKWNQLFCHNQAP
B23: 465-C10 peptide-displaying phage (SEQ ID NO: 101) (peptide)
peptide: GSILYCINRNDPQCPYTAP
B24: 545-C11 peptide-displaying phage (SEQ ID NO: 367) (peptide)
peptide: GSFAPCGWPSFAIDCIAEAP
B25: 545-E05 peptide-displaying phage (SEQ ID NO: 094) (peptide)
peptide: AGETFCVGNPSFECWSWGT
B26: 465-C06 peptide-displaying phage (SEQ ID NO: 377) (peptide)
peptide: GSQNNCEYGSRGSSFCLAMAP
B27: 445-G12 peptide-displaying phage (SEQ ID NO: 380) (peptide)
peptide: GSLYRCLGEASPTPPCAYEAP

Target: T1, cMet-Fc fusion protein (extracellular domain of the cMet receptor expressed as an Fc-fusion protein) (human, UniProt P08581 25-932)
T1 construct: extracellular domain; also called soluble cMet-Fc-fusion protein; soluble cMet receptor; not shown: Fc part
Test: phage ELISA on cMet-Fc, competitor HGF 100 ng/mL
Method in brief: (§1)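 Plates coated with 0.5 μg/mL cMet-Fc, with TRAIL-Fc as background, then blocked with 3% BSA. Bound phage detected with HRP anti-M13 antibody.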

T1 sequence (P08581 25-932): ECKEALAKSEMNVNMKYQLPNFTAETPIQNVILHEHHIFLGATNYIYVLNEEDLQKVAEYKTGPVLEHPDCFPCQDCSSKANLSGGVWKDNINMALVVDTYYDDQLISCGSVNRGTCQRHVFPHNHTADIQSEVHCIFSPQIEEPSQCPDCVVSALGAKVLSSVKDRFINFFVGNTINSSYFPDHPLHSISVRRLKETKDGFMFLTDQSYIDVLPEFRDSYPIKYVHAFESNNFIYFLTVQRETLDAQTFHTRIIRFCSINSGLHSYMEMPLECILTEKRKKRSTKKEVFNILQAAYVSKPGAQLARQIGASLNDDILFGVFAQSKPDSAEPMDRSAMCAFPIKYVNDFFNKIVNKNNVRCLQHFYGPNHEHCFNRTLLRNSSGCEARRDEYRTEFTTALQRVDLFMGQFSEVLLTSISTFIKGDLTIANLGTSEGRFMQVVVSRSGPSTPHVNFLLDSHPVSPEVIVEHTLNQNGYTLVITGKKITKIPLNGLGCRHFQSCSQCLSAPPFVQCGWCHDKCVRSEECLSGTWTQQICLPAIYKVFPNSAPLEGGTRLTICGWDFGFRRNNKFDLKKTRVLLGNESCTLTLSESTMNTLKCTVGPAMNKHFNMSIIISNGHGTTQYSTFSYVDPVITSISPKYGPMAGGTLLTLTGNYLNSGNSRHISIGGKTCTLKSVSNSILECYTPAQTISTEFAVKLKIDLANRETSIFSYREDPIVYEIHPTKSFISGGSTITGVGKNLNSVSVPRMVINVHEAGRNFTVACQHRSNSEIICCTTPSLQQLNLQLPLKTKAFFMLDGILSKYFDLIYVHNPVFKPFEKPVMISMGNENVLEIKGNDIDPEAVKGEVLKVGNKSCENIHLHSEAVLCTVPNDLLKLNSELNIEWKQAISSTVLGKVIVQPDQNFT

Binder	% of binding in the absence of HGF [%]
B1	83
B2	69
B3	130
B4	63
B5	109
B6	68
B7	48
B8	88
B9	87
B10	92
B11	81
B12	76
B13	73
B14	60
B15	69
B16	52
B17	33
B18	91
B19	140
B20	98
B21	124
B22	62
B23	95
B24	77
B25	70
B26	184
B27	85

Target: T1, cMet-Fc fusion protein (extracellular …)
Test: phage ELISA, cMet-Fc vs TRAIL-Fc
Method in brief: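 Plates coated overnight at 4 C with 0.5 μg/mL cMet-Fc, or TRAIL-Fc as background, were blocked with 3% BSA in PBST. Peptide-displaying phage were bound 2 h at room temperature. Bound phage were detected with HRP-conjugated anti-M13 antibody.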

Binder	Protein ELISA (fold over background) [fold]
B1	4.3
B2	8.4
B3	3.9
B4	6.2
B5	16.2
B6	4
B7	16.3
B8	13.3
B9	4.6
B10	3
B11	4.5
B12	5.6
B13	3.3
B14	12.3
B15	3.2
B16	8.4
B17	4
B18	3.6
B19	3
B20	9.7
B21	3.4
B22	7
B23	3
B24	7.7
B25	10.3
B26	6.4
B27	4

Target: T2, human cMet expressed on 3T3 cells (human, UniProt P08581 25-1390)
T2 construct: whole, on cells; cells fixed with glutaraldehyde; also called cell surface-expressed human cMet; 3T3 cells that over-express human cMet
Test: whole cell phage ELISA, 3T3 human cMet vs 3T3
Method in brief: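 3T3 cells over-expressing human cMet, compared against parental 3T3, seeded at 10⁵ per well and fixed with 0.1% glutaraldehyde for 12 min at 37 C. Blocked peptide-displaying phage bound for 1 h at room temperature. After PBST washes, bound phage was detected with HRP-conjugated anti-M13 antibody.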

T2 sequence (P08581 25-1390): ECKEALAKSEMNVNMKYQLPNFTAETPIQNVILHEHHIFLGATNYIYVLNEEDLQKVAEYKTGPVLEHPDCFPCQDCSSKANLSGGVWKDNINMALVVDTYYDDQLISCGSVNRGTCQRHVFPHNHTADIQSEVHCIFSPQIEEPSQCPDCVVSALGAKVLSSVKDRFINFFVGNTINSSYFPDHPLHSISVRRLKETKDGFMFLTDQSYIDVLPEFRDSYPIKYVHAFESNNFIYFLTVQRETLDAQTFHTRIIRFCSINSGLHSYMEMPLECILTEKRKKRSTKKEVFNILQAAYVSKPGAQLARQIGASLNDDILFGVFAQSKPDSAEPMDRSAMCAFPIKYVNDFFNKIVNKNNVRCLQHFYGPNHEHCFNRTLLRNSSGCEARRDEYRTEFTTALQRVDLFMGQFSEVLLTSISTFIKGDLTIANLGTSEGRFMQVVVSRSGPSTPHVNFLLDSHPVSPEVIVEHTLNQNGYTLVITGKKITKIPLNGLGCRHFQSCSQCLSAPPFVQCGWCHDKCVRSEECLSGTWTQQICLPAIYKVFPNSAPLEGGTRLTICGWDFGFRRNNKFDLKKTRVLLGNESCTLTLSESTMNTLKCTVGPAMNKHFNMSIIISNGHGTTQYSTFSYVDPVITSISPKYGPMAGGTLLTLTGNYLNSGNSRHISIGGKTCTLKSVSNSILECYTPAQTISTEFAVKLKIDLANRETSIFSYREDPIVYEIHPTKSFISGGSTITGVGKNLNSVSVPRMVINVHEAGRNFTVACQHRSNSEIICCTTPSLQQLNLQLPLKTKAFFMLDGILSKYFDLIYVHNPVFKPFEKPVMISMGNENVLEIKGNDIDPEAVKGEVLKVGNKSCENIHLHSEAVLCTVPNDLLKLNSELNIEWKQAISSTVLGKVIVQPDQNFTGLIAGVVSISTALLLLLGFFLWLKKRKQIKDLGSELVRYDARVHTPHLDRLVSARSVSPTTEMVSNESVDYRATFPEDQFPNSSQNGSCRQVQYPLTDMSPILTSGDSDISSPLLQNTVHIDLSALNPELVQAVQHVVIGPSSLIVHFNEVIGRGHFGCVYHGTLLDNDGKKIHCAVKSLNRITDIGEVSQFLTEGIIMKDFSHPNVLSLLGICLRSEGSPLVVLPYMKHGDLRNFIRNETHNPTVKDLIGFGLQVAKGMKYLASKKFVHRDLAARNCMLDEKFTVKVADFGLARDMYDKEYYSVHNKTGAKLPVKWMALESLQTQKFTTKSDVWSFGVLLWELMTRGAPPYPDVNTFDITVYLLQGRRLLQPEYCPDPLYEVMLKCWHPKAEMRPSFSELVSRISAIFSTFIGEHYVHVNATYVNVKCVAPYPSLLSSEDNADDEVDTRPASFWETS

Binder	WC ELISA (fold over background) [fold]
B1	1.33
B2	1.2
B3	1.43
B4	1.27
B5	1.23
B6	1.3
B7	1.23
B8	1.87
B9	1.37
B10	1.37
B11	1.27
B12	1.3
B13	1.37
B14	1.23
B15	1.43
B16	1.27
B17	1.3
B18	1.4
B19	1.3
B20	1.27
B21	1.4
B22	1.27
B23	1.27
B24	1.3
B25	1.27
B26	1.23
B27	1.37

Target: T1, cMet-Fc fusion protein (extracellular …)
Test: phage ELISA on cMet-Fc, competitor HGF 500 ng/mL
Method in brief: as §1

Binder	% of binding in the absence of HGF [%]
B1	73
B2	57
B3	81
B4	36
B5	53
B6	42
B7	17
B8	49
B9	62
B10	96
B11	71
B12	71
B13	83
B14	40
B15	73
B16	51
B17	17
B18	69
B19	112
B20	68
B21	143
B22	18
B23	71
B24	50
B25	32
B26	104
B27	52

Source: patent US20120039802A1 (published 2012)
